T1: PUF4 RNA-binding domain (Saccharomyces cerevisiae, UniProt P25339 537-888)
T1 sequence: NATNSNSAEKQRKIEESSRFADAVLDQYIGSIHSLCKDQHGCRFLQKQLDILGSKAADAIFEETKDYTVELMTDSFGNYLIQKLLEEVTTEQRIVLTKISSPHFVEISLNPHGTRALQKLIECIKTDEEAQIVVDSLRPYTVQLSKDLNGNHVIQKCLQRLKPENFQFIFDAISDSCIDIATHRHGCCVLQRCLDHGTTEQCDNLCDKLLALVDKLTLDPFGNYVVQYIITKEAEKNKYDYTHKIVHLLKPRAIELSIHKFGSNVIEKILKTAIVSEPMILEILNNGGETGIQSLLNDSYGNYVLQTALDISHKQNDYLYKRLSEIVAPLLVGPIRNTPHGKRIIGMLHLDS

B1: Id_ii_S2_P5E.2_K5.1_C5.2_[C-2A]_[T-1C]_H5.1_A5.1_F5.1_T5.2_[A12G] (ssRNA)
RNA: UUUGAUUAAUAUGAUAUCGUUCUUUCUACUGUAUUAUUAUGUUCUUUCUCGAUAUCAUAUUAAUCUUU
B2: Id_ii_S2_P5E.2_K5.1_C5.2_[C-2T]_[T-1C]_H5.1_A5.1_F5.1_T5.2_[A12T] (ssRNA)
RNA: UUUGAUUAAUAUGAUAUCGUUCUUUCUUCUGUAUUAUUAUUUUCUUUCUCGAUAUCAUAUUAAUCUUU
B3: Id_ii_S2_P5E.2_K5.1_C5.2_[C-2G]_H5.1_A5.1_F5.1_T5.2_[A12C] (ssRNA)
RNA: UUUGAUUAAUAUGAUAUCGUUCUUUCUGUUGUAUUAUUAUCUUCUUUCUCGAUAUCAUAUUAAUCUUU
B4: Id_ii_S2_P5E.2_K5.1_C5.2_[C-2T]_H5.1_A5.1_F5.1_T5.2_[A12T] (ssRNA)
RNA: UUUGAUUAAUAUGAUAUCGUUCUUUCUUUUGUAUUAUUAUUUUCUUUCUCGAUAUCAUAUUAAUCUUU
B5: Id_ii_S2_P5E.2_K5.1_C5.2_[C-2T]_[T-1G]_H5.1_A5.1_F5.1_T5.2_[T11G]_[A12C] (ssRNA)
RNA: UUUGAUUAAUAUGAUAUCGUUCUUUCUUGUGUAUUAUUAGCUUCUUUCUCGAUAUCAUAUUAAUCUUU
B6: Id_ii_S2_P5E.2_K5.1_C5.2_[C-2T]_H5.1_A5.1_F5.1_T5.2_[T11A]_[A12T] (ssRNA)
RNA: UUUGAUUAAUAUGAUAUCGUUCUUUCUUUUGUAUUAUUAAUUUCUUUCUCGAUAUCAUAUUAAUCUUU
B7: Id_ii_S2_P5E.2_K5.1_C5.2_[C-2G]_[T-1C]_H5.1_A5.1_F5.1_T5.2_[A12T] (ssRNA)
RNA: UUUGAUUAAUAUGAUAUCGUUCUUUCUGCUGUAUUAUUAUUUUCUUUCUCGAUAUCAUAUUAAUCUUU
B8: Id_ii_S2_P5E.2_K5.1_C5.2_[C-2A]_[T-1C]_H5.1_A5.1_F5.1_T5.2_[A12C] (ssRNA)
RNA: UUUGAUUAAUAUGAUAUCGUUCUUUCUACUGUAUUAUUAUCUUCUUUCUCGAUAUCAUAUUAAUCUUU
B9: Id_ii_S2_P5E.2_K5.1_C5.2_[C-2T]_[T-1C]_H5.1_A5.1_F5.1_T5.2_[A12G] (ssRNA)
RNA: UUUGAUUAAUAUGAUAUCGUUCUUUCUUCUGUAUUAUUAUGUUCUUUCUCGAUAUCAUAUUAAUCUUU
B10: Id_ii_S2_P5E.2_K5.1_C5.2_[C-2T]_H5.1_A5.1_F5.1_T5.2_[T11G]_[A12T] (ssRNA)
RNA: UUUGAUUAAUAUGAUAUCGUUCUUUCUUUUGUAUUAUUAGUUUCUUUCUCGAUAUCAUAUUAAUCUUU
B11: Id_ii_S2_P5E.2_K5.1_C5.2_[C-2T]_[T-1A]_H5.1_A5.1_F5.1_T5.2_[A12T] (ssRNA)
RNA: UUUGAUUAAUAUGAUAUCGUUCUUUCUUAUGUAUUAUUAUUUUCUUUCUCGAUAUCAUAUUAAUCUUU
B12: Id_ii_S2_P5E.2_K5.1_C5.2_[C-2T]_[T-1C]_H5.1_A5.1_F5.1_T5.2_[A12C] (ssRNA)
RNA: UUUGAUUAAUAUGAUAUCGUUCUUUCUUCUGUAUUAUUAUCUUCUUUCUCGAUAUCAUAUUAAUCUUU
B13: Id_ii_S2_P5E.2_K5.1_C5.2_[C-2T]_[T-1G]_H5.1_A5.1_F5.1_T5.2_[A12C] (ssRNA)
RNA: UUUGAUUAAUAUGAUAUCGUUCUUUCUUGUGUAUUAUUAUCUUCUUUCUCGAUAUCAUAUUAAUCUUU
B14: Id_ii_S2_P5E.2_K5.1_C5.2_[C-2A]_H5.1_A5.1_F5.1_T5.2_[A12C] (ssRNA)
RNA: UUUGAUUAAUAUGAUAUCGUUCUUUCUAUUGUAUUAUUAUCUUCUUUCUCGAUAUCAUAUUAAUCUUU
B15: Id_ii_S2_P5E.2_K5.1_C5.2_[C-2G]_H5.1_A5.1_F5.1_T5.2_[A12T] (ssRNA)
RNA: UUUGAUUAAUAUGAUAUCGUUCUUUCUGUUGUAUUAUUAUUUUCUUUCUCGAUAUCAUAUUAAUCUUU
B16: Id_ii_S2_P5E.2_K5.1_C5.2_[C-2T]_[T-1C]_H5.1_A5.1_F5.1_T5.2_[T11A]_[A12C] (ssRNA)
RNA: UUUGAUUAAUAUGAUAUCGUUCUUUCUUCUGUAUUAUUAACUUCUUUCUCGAUAUCAUAUUAAUCUUU
B17: Id_ii_S2_P5E.2_K5.1_C5.2_[C-2A]_[T-1A]_H5.1_A5.1_F5.1_T5.2_[A12C] (ssRNA)
RNA: UUUGAUUAAUAUGAUAUCGUUCUUUCUAAUGUAUUAUUAUCUUCUUUCUCGAUAUCAUAUUAAUCUUU
B18: Id_ii_S2_P5E.2_K5.1_C5.2_[C-2T]_[T-1G]_H5.1_A5.1_F5.1_T5.2_[T11A]_[A12T] (ssRNA)
RNA: UUUGAUUAAUAUGAUAUCGUUCUUUCUUGUGUAUUAUUAAUUUCUUUCUCGAUAUCAUAUUAAUCUUU
B19: Id_ii_S2_P5E.2_K5.1_C5.2_[C-2A]_[T-1C]_H5.1_A5.1_F5.1_T5.2_[T11A]_[A12T] (ssRNA)
RNA: UUUGAUUAAUAUGAUAUCGUUCUUUCUACUGUAUUAUUAAUUUCUUUCUCGAUAUCAUAUUAAUCUUU
B20: Id_ii_S2_P5E.2_K5.1_C5.2_[C-2A]_[T-1C]_H5.1_A5.1_F5.1_T5.2_[A12T] (ssRNA)
RNA: UUUGAUUAAUAUGAUAUCGUUCUUUCUACUGUAUUAUUAUUUUCUUUCUCGAUAUCAUAUUAAUCUUU
B21: Id_ii_S2_P5E.2_K5.1_C5.2_[C-2A]_H5.1_A5.1_F5.1_T5.2_[A12G] (ssRNA)
RNA: UUUGAUUAAUAUGAUAUCGUUCUUUCUAUUGUAUUAUUAUGUUCUUUCUCGAUAUCAUAUUAAUCUUU
B22: Id_ii_S2_P5E.2_K5.1_C5.2_[C-2T]_[T-1A]_H5.1_A5.1_F5.1_T5.2_[T11A]_[A12C] (ssRNA)
RNA: UUUGAUUAAUAUGAUAUCGUUCUUUCUUAUGUAUUAUUAACUUCUUUCUCGAUAUCAUAUUAAUCUUU

These binders were tested against T1, PUF4 RNA-binding domain (assay: Mg; RNA-MaP; 20 mM Na-HEPES pH 7.4, 30 mM KOAc, 0.75 mM MgCl2, 0.1% Tween-20, 5% glycerol, 0.1 mg/mL BSA, 2 mM DTT; 25 C; 0.0125-409.6 nM protein). Conditions: tags: N-His6-TEV cleaved; C-SNAP kept, Cy3B-labelled; label: tethered on chip by stalled RNA polymerase.

In order of falling Kd:
1. B1  31.6 nM
2. B3  18.8 nM
3. UCUCUUUGUAUCACUAUCUCUU (ssRNA) [Ib_S1_P5E.1_K5.1_C5.1_H5.1_A5.1_[T6C]_F5.1_[T8C]_T5.1]  18 nM
4. B17  9.68 nM
5. B22  8.24 nM
6. B21  5.06 nM
7. B16  4.08 nM
8. B10  3.67 nM
9. B19  3.61 nM
10. B14  3.2 nM
11. B6  3.17 nM
12. B7  3.07 nM
13. B9  3.04 nM
14. B12  2.98 nM
15. B8  2.94 nM
16. B5  2.9 nM
17. B11  2.85 nM
18. B20  2.49 nM
19. B15  2.47 nM
20. B13  1.84 nM
21. B2  1.5 nM
22. B4  1.44 nM
23. B18  1.41 nM

Source: article PMC9352680, “A comprehensive thermodynamic model for RNA binding by the Saccharomyces cerevisiae Pumilio protein PUF4”
